Experiment: soluble on expression in E. coli; label from the status in PepcDB or PDB records

Soluble on expression in E. coli, not soluble:
MGSDKIHHHHHHMTTRQPKTEADVLAETANLILDKYFHNQKNICTYDKIELARMLGLAEDNKKSDYALFHFIKALRYVVLGNFNEAINSYEATLRIPNSHAGILSNYATTLIILGELEQAKEMLIKCLNETDDGVSNLEYFANIIELYLLSTLDETLLQHAGNMKDSTLDKYSNILKLKTDINKIDISIQDYQEFTGVLIKFIFDKTRQIYQPRFSIDNGLDRQLNIEAFLNINPEEASYLNTEFRNQYLDYIFDNERHDLLGKFVVFFRQNKNREDGTEKPKAFYLGTNRELEA, MGSDKIHHHHHHMTTSATKEALFSPDCLEFLAKLASNNERDWFKAHQAEYEAKVRTPALNFIGAMAPHIQQLSPRLTAVPKKVGGSLMRPQRDARFSSDKTPYKVNVGIQFRHFQGKDVHAPGLYLHIANDGCFLGAGIWHPDSKALSQIRSCIDDNPNAYKQALKQLSAAGFAMEGDSLQRPPKGYDKHHPMLDELKRKDFIAIKPLDTQQLFTKDFDTWCAEQFNQVNKLMGYLCFALDLDY, MGSDKIHHHHHHMTTVLEKFEKLKTEHAPGQEVRQKTPAFEELLIGEKLEGRTVDFSHGDVDAFLPTPGAFEEFSDGVHSGGKQAYTVYRGLADLREILSVRLTSFTGAPVNAADNLIITPGTQGALFLSVAATVAAGDKVAIVQPDYFANRKLVEFFEAEMLPVQLDYLGTDKAAGLDLNQLEAAFRDGARVFVFSNPNNPTGAVYSTEEIDAIAALADRYGAMVIVDQLYSRLLYEGTEYQHLRAVGGTGRDNVITIMGPSKTESLSGYRLGVAFGPSSVIERMERLQAIVSLRAAGYNQAVLQTWFSEPDGWMSERIKLHQAIRDDLLTRFRARADVAVRTPQAGSYMFAKLPRLRVSPIDFVKILRHQATVIVTPGSEFSPHTASSIRLNFSQNHAAATGAVERLVTLIERYREARP, MGSDKIHHHHHHMTVAVDLPIPAKLVPVFTKENVRYRGAHGGRGSAKTRTFAMMSAVRAYQAAESGTSGVILCAREFMNSLEESSMEEVKQAIRSIPWLDDYFEIGEKYIRTKNRLVNYVFCGLRHNLDSIKSKARILLAWIDEAESVSETAWKKLRPTVRESGSEIWVTWNPEKDGSATDKRLRKKPPKSSIIVEMNYSDNPWFPDVLEEERQEDLESLDHSDYAWIWEGAYLENSEKQVLANKYKIESFPDDLWMQADRLLFGADFGFARDPSTLLRMFILDNCLYIDREAYSVGVELDHMPAFYDQVPESRKWPIKADSARPETISYLKRQGFNISAAKKWQGSVEDGITFLRGFKKIIIHPRCKETAKEARLYSYKVDRITGEVLPIIEDAHNHCWDAARYGLDGYIKGRTTVWDIM, MGSDKIHHHHHHMTVELKNILDLEKWEKLQESLALSTRLAIILVDYKGRPVTKHSQVQPFCQLVRHSPELSKLCEKCDARGGLEAVRTGQPFIYRCHFNIVDMAIPIIVDDQYVGAIMAGEVLLEDHQEELEQVLTMNDAFIQEFLVTHQELYQQYPVLELADLEKSATLIADLSQYIISEAIKKDYLINTYKQSLQISSRKEELEPLNMIQKDIQQTLLTAQLTPSSAYQTKNKQLQPVLDALWENKSLRLNLQELADLVHLTPTYLSRLLKEEFGIPFSQFYRQLKITWAKQLLLETDKTIAQISEDLGFVEDSYFVRIFKQETGETPLKYRKRKNRA, MGSDKIHHHHHHMTWQVWRLGGLAITMVASLLLLDACSRDKAPVQIRSAVSQLPQTLDPRYATDAASARVNRLIYRSLVDFDVHARPAPSLASWRVLSPRLFRFTLGRHGRDFHDGRYLTAEDVAATYQSVIELADSPHAAEFANISKIEVRDENTLDFFLHDADSNFPARLILGILPAELIARQHDFSREPVGSGPFKFVSWQRSLKLERRSDKKRFVFEEVRDPTVRVLKLVRGEADILQGDLPPELVNYLKQQPGIDVQESEGSNFAYIGLNLQDDVLRNPLVRQALAHAIDRESIIKHALVGHSRLAESILPPEHWAGNGNLKPYEYNPVLARELLLRAGVSLPLKLVYKTSTDAQRVRLATMMQAQMRDAGIQLEIRSLDWGTFFDDIKRGNFQLYGLMWVGIKTPEIYHHAFHSSSVPPKGANRGHYADPKTDELIAVSDWASVAERVHAQLPYIPLWYEGQFAATRDHIKGYSLQPDGSWDGLVDVKRSKLKSVFPGRNQSAGM, MGSDKIHHHHHHMTYELSTDREFDLIAIGRACIDLNAVEYNRPMEETMTFSKYVGGSPANIVIGSSKLGLKAGFIGKIADDQHGRFIESYMRGVGVDTSNLVVDQEGHKTGLAFTEIKSPEECSILMYRQDVADLYLSPEEVNEAYIRRSKLLLVSGTALSKSPSREAVLKAIRLAKRNDVKVVFELDYRPYSWETPEETAVYYSLVAEQSDIVIGTREEFDVLENRTEKGDNDETIRYLFKHSPELIVIKHGVEGSFAYTKAGEAYRGYAYKTKVLKTFGAGDSYASAFLYALISGKGIETALKYGSASASIVVSKHSSSDAMPSVEEIEALIEKDETITIA, MGSDKIHHHHHHMVANPALPEGISDLPAGTLASVVTYLEMKTPPPIKGLETPPGLRLLRHDAPDVEWYCRLYRLVGEDYLWFSRLMWDYATLAAHLASDRVEVWSLQKQGVDLGLLELEWMQDGDCELSFFGLSKELIGAGVGRWLMEHATARAFSREISRFFVHTCTLDSPQALGFYMRSGFVPYGRAVEIAEDPRLTGLIPKTAAAHVPLIQR, MGSDKIHHHHHHMVEVLTESNQSLDSLEALCSKYRIERGIVATVVDLNERILAELAALPFPLLWLNHETPLPVGNLYETPETLGYDRIAAVVGANEQFPHNDILVIDAGTCITYEFIDSKGQYHGGNISPGMQMRYKALHQFTGRLPLIDSNGRKLPMGRDTETAIRAGVLKGMEYEISGYIEAMKHKYPELLVFLTGGDDFSFDSSVKSAIFADRFLVLKGLNRILNYNNGRI, MGSDKIHHHHHHMVIVARCNHNGSNLTEQFPPINDIRSNSRQLVRELGFMGGDFAGTDLPPSSVHALIEIEACPGITAKDLGKLLRLEKSSVSRMLRKLILSGDIVEQTDDVDSRIKRLRLTGQGREKVSGINGFANRQVSGALAQLTATDAHTILEGLRLYAGALGARTGTPASTVDIKQGYRPGIIARITQMHALYYARTSGFGQRFESVVAEGLAAFCNRLENPRNAIWVAMRGQEIIGSVAIDGEDLGADIAHLRWFIVDDGIRGGGVGRRLLATALAFADQAGFAETHLWTFNGLLAARHLYETHGFTCTEEYPGSQWGSEVLEQRFIRPRPE, MGSDKIHHHHHHMVKGLYTAHTGMVNEMKRMDVLANNLANSDTYGFKKEGTTSHSFKNELAIKIKDTSNYGLHKNLGSMTYGVHLGETYTDWDEGSFKVTDNPTDLAIGGKGFFAVAFTDKSGQTSVKYTRDGAFKVNADGYLVTADGDHVLNATGALSGDGGEANWVKVDPNEKFSVNSLGYITQNNQLVGTIGVVDVDNYDYIEKYGENLYNLTAGGNIIASDAEIEQGALETSNVNVVNEMVLG, MGSDKIHHHHHHMVLALNYNMHGVNIRSENAAKPHTMPSRYLCEYIRSIEKNGHALDFGCGKLRYSDELISKFDEVTFLDSKRQLEREQIIRGIKTKIIDYVPRYYKNANTVAFEDVDKIIGGYDFILCSNVLSAVPCRDTIDKIVLSIKRLLKSGGETLIVNQYKSSYFKKYETGRKHLYGYIYKNSKSVSYYGLLDELAVQEICSSHGLEILKSWSKAGSSYVTVGSCNAI, MGSDKIHHHHHHMVLLILKFHGESVKIKPECAICIIRQVVDAANEITDDEREQFRLIKSTMEVIKDVYGESAVPAWMGTVVHRYLKKISNNNDPYKNLKEKANKIALQYLDKVREMSNTDDELERLRKKVLATIAGNVIDFGAYSTGINIEKLIEDTLNGELKIDNSRKLLNDLKDKNIKKILYICDNAGEIIFDRVLMEEIKKYDKDIVAVVKGKPILNDATLEDAKIAKIDEIAKVITTGSDIIGIILEECSEEFLKEFESADLIIAKGMGNYESLTEYEDKIDKPIYYILKAKCKPVAENIGVDVGDNVLLKR, MGSDKIHHHHHHMVVDGPRDPRMNMAIDEAILRVGAAPTLRIYMWLPGGLTLGRRQSVEDVNLAEAEKRGYVLVRRPTGGAALLHPWEREITYSLVLDSRHPYYSLDVAESAATIAGGVALALEELGIATRVGGYTPPPGVIGGLCYVRPGSSDVVVAGRKVSGSAQRRIGGRLLQHGTLLLRFDPEEWLSIIPVKGAGPSDLASRIAGIEDLAGRSYSFSEVADALVKGFSKALGLEPEPSGLEGREVEEALRLYRKKYSSPRWNLEGDEP, MGSDKIHHHHHHMYEHQTYEAILVRMLARVPETIDKREGSLIYDALAPGAAELAQAYAELVVNNNLSFADTASGEFLTRRAAEFGIKRKVATKAWRRGGFLDSNNALLNIPLGSRYSIGGLNYTAIEQISTGAYVLECETAGTAGNQQFGDLLPIAYVNSLARAELTEVLVPGEDEETDEALLSRYYETVNEPAFGGNMADYRQKVNAINGVGGTKVFPTWAGGGTVKCTIIASDWAKPSPELVNEVQSTMDPEENQGMGLGQAPIGHAVTIAGVDKVTVDVETTLTLAPGVTPGQVQSDVEAILDAYLLEQRKTWAAQTQIIIRMAQIDARMLTVQGVEDVTGTKLNGTEANFLLDEEEIPILGTVIINE, MGSDKIHHHHHHMYKIGIDVGGTNTDAVILDENQQLIHSVKMPTSEDIETGITESLHRVLSETGIDRSKVTHAMLGTTQCTNAIVERKKLAKVGVLRLGYPATASVLPYTAWPEDMVGFLSGKYKLTGGGYEYDGQVLSEINEAEIRETLASWKGEVESVAVVGVFSSLKNDQELAVQKIIEEELGADIPVSISSSVGSVGLIERENATILNAALFKVIAATSDGFEKALEQEGIEHAEIYLCQNDGTLMSLNYARQFPILTIACGPTNSIRGASYLAGLKDAMVLDVGGTTSDIGVLTDGFPRESSLAVDVGGVRTNFRMPDIISIGLGGGSIVREKDGDITIGPDSVGYRISEEALVFGGKTMTTTDIAVRLGMAEIGNPELVAHIPTDFAEKAYKKIADMTEDAIDKMKTSSGSVSLVLVGGGSMIIPDEISGVAQIFRDKNGPVANAIGASISQISGQYEQIYIYSQIEREEALQDAEQKAREQATLAGAVTDSIEVVEVEEIPLAYHPGNATRLRVKVVGDLV, MGSDKIHHHHHHMYKWGWTMTSSVAQLLSTPVEEVAGKEVPVLDKDFSLAEILKAVEKAKIDRAFLTEGNSIRGVLTFRDILDKIATVRTKQAYIGGLHGSSFMNEPVKYVEVGREVSHALETMANGMFTSVPVVGAGGVVEGGITRFELARLVKDLEISQDTSVRDVMRTFLVSVNLQTRILHVRQLLYEYDISVIPVMDEGRFVGVVGLDELMAIIKSFYNLARGEPKRHTPLKYVIVADAIRMRPPVVTPDASLAEAAEKMLEKRYRAVVVVDSEKPVGFTSGLELANFLLTKKSS, MGSDKIHHHHHHMYLKGDFHIHTNASDGKYTPEKVLELAKTAGINILAITDHDTTSSVKKAIAVGNELGIKVLPGIELSTLKNGESIHILGYFRDISYENKDFQNFLTEMQNYRVWRAKKIVENLDTYFNIKLDYASILKEASNVIARPHIARAILAKGYNYTYEYIFNNILNKESPAYIPNKKVSVEEGIKLLKAANAVVVLAHPVLIKKTPIEDFLKLDFDGIEAIYPMNSESDTERFLSLAKIYNKLVTAGSDFHTDDSSDTKHGRIGEIYLDENNIDILLSK, MGSDKIHHHHHHMYPNLTSEQALLILQSARNPDKAYDLFAQAAEVRDKVFGKRLWWSSGSGGIFPCLVKPRCSYCTYYTEKLFPTDVLLTGLELIESLGIQQFHISGGTDLDEGYDEQLLELVQAIKTRSGLKLEINLGPSFRQETVLELKKLGIDSVTSSLECNTPAIFARAKPGDSLERRRELLHHCEEADMPSRSMMLLGLGETDQERIEHLFYLQQFKKLYQLRLSRFMPFPGTLYKDRSRCSPWDTALITAMARLILPNLEISLAAGNSNDDIPLWYLAGGGSQLLGVSITRKEPPATPDVDVYAIGEGAYVVDKRQQVARVLEGMNLEVTCEMPDYRALQSQF

Source: the DeepSol protein solubility set
